Assay results taken from the DeepSol protein solubility set.

Assay: soluble on expression in E. coli; label from the status in PepcDB or PDB records

Soluble on expression in E. coli, not soluble:
MKPLSSPLQQYWQTIVERLPEPLAEESLSAQAKSVLTFSDFVQDSISAHPEWLTELESQPPQADEWQHYVAWLQEALINVSDEAGLMRELRLFRRRIMVRIAWAQTLALVTEESILQQLSYLAETLIVAARDWLYDACCREWGTPCNAQGEAQPLLILGMGKLGGGELNFSSDIDLIFAWPEHGCTQGGRWELDNAQFFTRMGQRLIKVLDQPTQDGFVYRVDMRLRPFGESGPLVLSFAALEDYYQEQGRDWERYAMVKARIMGDSEGVYANELRAMLRPFVFRRYIDFSVIQSLRNMKGMIAREVRRRGLTDNIKLGAGGIREIEFIVQVFQLIRGGREPSLQSRSLLPTLSVIAALHLLSENDAEQLRVAYLFLRRLENLLQSINDEQTQTLPSDELNRARLAWAMDFADWPQLTGALTAHMTNVRRVFNELIGDDESETQEESLSEQWRELWQDALQEDDTTPVLAHLSEDDRKQVLTLIADFRKELDKRTIGPRGRQVLDHLMPHLLSDVCAREDAAVTLLRITALLAGIVTRTTYLELLSEFPAALKHLISLCAASPMIASQLARYPLLLDELLDPNTLYQPTATDAYRDELRQYLLRVPEDDEEQQLEALRQFKQAQLLRIAAADIAGTLPVMKVSDHLTWLAEAMIDAVVQQAWVQMVARYGKPNHLNEREGRGFAVVGYGKLGGWELGYSSDLDLIFLHDCPMDAMTDGEREIDGRQFYLRLAQRIMHLFSTRTSSGILYEVDARLRPSGAAGMLVTSTEAFADYQKNEAWTWEHQALVRARVVYGDPQLTAHFDAVRREIMTLPREGKTLQTEVREMREKMRAHLGNKHRDRFDIKADEGGITDIEFITQYLVLRYAHEKPKLTRWSDNVRILELLAQNDIMEEQEAMALTRAYTTLRDELHHLALQELPGHVPEDCFTAERELVRASWQKWLVEE
MPPKLRNFDKSMEKYTDVVLVVKQERFYVSRAILSEHCTYFQSLFCGDSNYQEHIISDVEPQDFQKFLEVVHGEPAIFEATVQKILPLAQKFGSKTVLQKCERFLITISTVRLSTKWNLAKQYGLDELQAHCKLEFKTAQIVRKNPQPEPKSLAYSDKFIFDHSFEKVDGLAEGDMRRSQPITHLDFTWTIYITRKNQHLRVSLCCGKAHLTSDWTVRADFKMTLTAKGSPDLVSDTKGFFHLDSEKNFYWELGQEVEWDEIRDKCLADGKLEVETRVRIVKIRELPVEEFKPPRIVTVNAVKSYEGVLSDYIRVTPLTQQAKTSAPAETPDLQTPPRQQASAKPQASPAKSAGAPQLPQKVPLFPSGGAPSSPSAPEAPSEPPPPKIYPTLGANAPPAPPVQGKKFILKNVFGNVEAMKCHTAMACQKAVAYDFEWNLIISQKNNRLHVSLCCSKSNVTSEFRILADFELIIAGKNGGRPLKSKTNGCFNIEKTKNSSQELGQDVEWSTIVYDYMVDGRLTVEAHVNITRVTCLDAPKFKKLRNFDATGNSWDVMLIVAGQRFFVLKEILISNSARFKNIISKINFTAAPSTEIKLPDSSADHFQNFLEACYGDPSINDDTVHGILKIAQSYEAAGIVKRCEEYVIKYSKKTLEQKEKLAKHHNLKTLKAHCDYWKSRRKCC
MGQRSTPQQIPVVVLAGFLGSGKTTLLNHLLHRSGGSRIGAVVNDFGSIEIDAMAVAGALGDSTVSLGNGCLCCAVDASELDGYLARLARPEAGIDVIVIEASGLAEPQELVRMLLASEQPGIVYGGLVEVVDAAEFDDTRARHPEIDRHLALADLVVVNKTDRATDAERVLGLVHSLVGGAAVVPATYGRIDPEFLYDCRPGEERVGQLSFDDLHDHSEGGAHADHLHAAYDTLSFVSGLPLDPRRLMRFLDSRPKGLYRIKGYVDFGPYDTRNRYAVHAVGRFLRFYPEPWTPAGAAGGSGAPETGRTQLVLIGSGIDAAALGEELDACRRDADAPPADEHGMWGVLRYVADGEEPPDSPLEHHHHHH
MGSDKIHHHHHHKGHRVTGSDANVYPPMSTQLEEQGIELIQGFDPSQLGDAGSYPDIVVIGNAMSRGNPCVEAVLNLGIPYTSGPQFLVDHILPERWVLAVSGTHGKTSTSSMLAWILEDCGYQPGFLIGGVPQNFGVSARLGESAFFVVEADEYDSAFFDKRSKFVHYHPRTLVINNLEFDHADIFADLAAIQKQFHHQIRTVPGQGKVIWPADSHAVKQTIDMGCWSEQETYHSSEVTKGWHAKALSDDCHEFEVFFDGQSQGVLDWALIGQHNIENAVMAIAAARHVGVAPSAAIDALARFVPPKRRLELLDTVNGVSVYDDFAHHPTAIATTIKGMRAKVGQTKITIVLEPRSNTMKSGVHKDTLAHSMLQADEAFLYQADTIDWNMKEAMEAAVIPVTVLHQIDDVVAKVAASAKPGDTIVVMSNGGFGGLHKKLLAALAVSPQLVEQAH
MACLCLANISWATVCANSTGVAEDEHYDLSNVFNSTNNQPGQIVVLPEKSGWVGVSAICPPGTLVNYTYRSYVTNFIVQETIDNYKYMQLNDYLLGAMSLVDSVMDIQFPPQNYIRMGTDPNVSQNLPFGVMDSRLIFRLKVIRPFINMVEIPRQVMFTVYVTSTPYDPLVTPVYTISFGGRVEVPQNCELNAGQIVEFDFGDIGASLFSAAGPGNRPAGVMPQTKSIAVKCTNVAAQAYLTMRLEASAVSGQAMVSDNQDLGFIVADQNDTPITPNDLNSVIPFRLDAAAAANVTLRAWPISITGQKPTEGPFSALGYLRVDYQ
MTQLCSDVRVSPLPGTAKVGDTYILFEHHGPWSHDILDGGTFDKETSAALKAMGCGFYLIRRHGREGRIERPKKTAYLVFGSAGIAEKLMVDDVTDLLKLDVSGPGKNRQFGAEQEAQPIILVCTHAKRDACCAIKGRPMAQALTEEFPDSPVWECSHTKGHRFAPSMVLMPWGYTWGQLNKPAAFDMYRYAQRGQLFLPGNRGRGIWPMKGQIAEVAVAQQLAQEGETVTLGQLRVESIEEAQAHVADSHTARTWTVFLREEVVAGIVDSCHKPPKTGTAWVADRVKENGA
MAVYRNVQVNFWQDDFVLDLTPEERYFYVYLLTCSKTTQCGIFPFPKRLAEMETGYNRETVDKLVQRFVDYGKILYDADTRELFVLNWLRYNPVTNTNVEKCVLRELKSVKNKEFVHMFLQKCVEEELNVPMLLAHFGMPSDLAVDDVEPVCEETEAEEEVIEEETGSRVFSFYEQHFGSLSPFAVEELSAWMEDLSEELVLKALQIAFENNKRTVAYVKGILRGWHGKGFTKVCEVEADTAKFRKKESSVSTGETEEFLARCEEWEKNAPSEEELQRFLAERGWRP
MRNPKQTRGKQTKSKIINAAFELFSEKGYTGTSSNEIASRAEVAIGSFYSYFKDKKQLFIEVLKDYYDNISKISFSNINGTISNLDDFLYESIKIALKAHEYHPEFHREVNIMELADDDIKKLIVGYEKVKFDSFKKLVEPYKNEFKNLNFNEALFLIYTTIENTVHVITFSTDTNLNKETLIKELISMIKSYINA
MELSSLTAVSPVDGRYGDKVSALRGIFSEYGLLKFRVQVEVRWLQKLAAHAAIKEVPAFAADAIGYLDAIVANFSEEDAARIKTIERTTNHDVKAVEYFLKEKVAEIPELHAVSEFIHFACTSEDINNLSHALMLKTARDEVILPYWRQLIDGIKDLAVQYRDIPLLSRTHGQPATPSTIGKEMANVAYRMERQHRQLNQVEILGKINGAVGNYNAHIAAYPEVDWHQFSEEFVTSLGIQWNPYTTQIEPHDYIAELFDCVARFNTILIDFDRDVWGYIALNHFKQKTIAGEIGSSTMPHKVNPIDFENSEGNLGLSNAVLQHLASKLPVSRWQRDLTDSTVLRNLGVGIGYALIAYQSTLKGVSKLEVNRDHLLDELDHNWEVLAEPIQTVMRRYGIEKPYEKLKELTRGKRVDAEGMKQFIDGLALPEEEKARLKAMTPANYIGRAITMVDELK
MGHHHHHHSHMHVDREFAVVTDMKNSSSVSNTLTNGCVINGHLDFPSTTPLSGMESRNGQCLTGTNGISSGLAPGQPFPSSQGSLCISGTEEPEKTLRANPELCGSLHLNGSPSSCIASRPSWVEDIGDNLYYGHYHGFGDTAESIPELNSVVEHSKSVKVQERYDSAVLGTMHLHHGS
MFMEVSLTSLPAHVMNALDAIWEGSIADSLESETLEFKEDPSCAGRGKQHGNPQAALIEKLIDEAVCLANGDAGTGHIVVGIKDKIGGPEAFTGTTFDTEKIAKKIFDGTRPNLRPEVHEVRYQNNRLIVIYIPEALSLYSRSKGQTSKRVGSHCEPLSEEQRRAIAATRAHADYSNGISEFNVDDIAADTIQEVRRLLKTKRAQSGIDTSLPTTTNGLLRELGLIDNYGALKRAGAILLLPAPEGQLSIRHFWRSFPGIDPEVTDYNQPLLIALSSLKRRITENANKEIKRIQFSDGQEIAVSAFPQTAVDEVVTNAIIHRDWRLSRPVVIDQSPQTLKVWSPGSLPVGVTPNRLLTTQSIPRNSRLMSAMRMLGLAEESSRGFDRIWAALLGSGRDIPDVHTEDTFVEVILHSGNPDESFIKALHELSLSFNPDMLHSVNTLIVLWHLWTSPVISLKQARVKTQTSSKEATELMFALESNGLLTQIHNTDEWFLSEKARKTTNYYQSETIPQSSVQTWVEEKLSSGSPISAAEIAESIGMPRPEITEILRNLRRAGKAHIDPSGPQRGSGTRWIKGT

Soluble on expression in E. coli, soluble:
MFGNLQGKFIIATPEMDDEYFDRTVIYICEHNDNGTIGVIINTPTDLSVLELLTRMDFQMAKPRIYTQDQMVLNGGPVNQDRGFIVHSKTDHEFTHSYKVTDDITLTTSGDVLDSFGTQTAPEKFIVCLGCSTWKPHQLEQEIAQNYWLLSEANNQTLFETSYLDRWVEANEMLGISGILAPAGRALEHHHHHH
MNLEMLESQPVPEIDTLREEIDRLDAEILALVKRRAEVSKAIGKARMASGGTRLVHSREMKVIERYSELGPDGKDLAILLLRLGRGRLGH
MSLRGIRLQQPAGLASLSSVALPDPGQPAAGQIRVRLHASSLNFHDLGIVSGQMPTADGRIPMSDGAGVVEAVGEAVSDFAVGDHVVSTFFPQWLDGEPLHAGFATTPGDGVDGYARSAVVAAAQAFTHAPRGYSHAEAATLTTAGVTAWRALVVNGRIKAGDTVLVLGTGGVSIFALQFAKAMGAMVIVTSSSDQKLETARTLGADHCINYRQHTEWAAQVLEITNGRGVDHVVEVGGPGTLAQSIKAARVGGHIALIGVLTGAAGPVPTAEMMGRQQRLQGLVVGSRRHQQELVRALDGLPLRPVIDRSFALEDIAEAFALQHAGGHLGKIVLEFEGHHHHHH
MKPKTLSPILTAKGVRLAIAVGRFNERVTKLLLEGALEAYARLGGDPAEVLVAWVPGSFELPLVAKRLAQRPDVDAVVALGAVIRGETPHFEYVAGQAASGLMQAMLQTEKPIVFGVLTTNTPEEAQERAGGKAGNKGAEAVFTAIEMVRLLEAISR
MGSYLSVPAYFTSRDLFRCSECQDSLTNWYYEKDGKLYCPKDYWGKFGEFCHGCSLLMTGPFMVAGEFKYHPECFACMSCKVIIEDGDAYALVQHATLYCGKCHNEVVLAPMFERLSTESVQEQLPYSVTLISMPATTEGRRGFSVSVESACSNYATTVQVKEVNRMHISPNNRNAIHPGDRILEINGTPVRTLRVEEVEDAISQTSQTLQLLIEHDPVSQRLDQLRLEARLAPHMQNAGHPHALSTLDTKENLEGTLRRRSLRRSNSISKSPGPSSPKEPLLFSRDISRSESLRCSSSYSQQIFRPCDLIHGEVLGKGFFGQAIKVTHKATGKVMVMKELIRCDEETQKTFLTEVKVMRSLDHPNVLKFIGVLYKDKKLNLLTEYIEGGTLKDFLRSMDPFPWQQKVRFAKGIASGMAYLHSMCIIHRDLNSHNCLIKLDKTVVVADFGLSRLIVEERKRAPMEKATTKKRTLRKNDRKKRYTVVGNPYWMAPEMLNGKSYDETVDIFSFGIVLCEIIGQVYADPDCLPRTLDFGLNVKLFWEKFVPTDCPPAFFPLAAICCRLEPESRAPPGAAGEGPGCADDEGPVRRQGKVTIKYDPKELRKHLNLEEWILEQLTRLYDCQEEEISELEIDVDELLDMESDDAWASRVKELLVDCYKPTEAFISGLLDKIRAMQKLSTPQKK
MKDDRYPSEWAQLALQKKQSVNWACERCGVQCLKPGEGKGLSTGDRYRLRMAVHHCDYDPGNNSPSNLKALCSPCHLYFHRRQRGNVIPGQLRLKFSFLILEHHHHHH
